Data published in patent US10543284B2, “Anti-c-Met antibody and anti-c-Met antibody-cytotoxic drug conjugate and pharmaceutical use thereof” (Suzhou Suncadia Biopharmaceuticals Co., Ltd., priority 2015, dated 2020).

Legend:
Caki-1 cells = assay: Agonist test: stimulation of Caki-1 cell proliferation; type: cell-based, human; conditions: highest concentration 20 μg/ml, 5 days
Method: Caki-1 cells express the hepatocyte growth factor receptor c-Met, and HGF can bind c-Met to stimulate Caki-1 cell proliferation. Therefore, agonist activity of anti c-Met antibodies could be evaluated by the proliferation of Caki-1 cells stimulated by the humanized anti c-Met antibodies of the invention compared with the proliferation of Caki-1 cells stimulated by HGF.
Caki-1 cells (Shanghai Branch of Chinese Academy of Science, TCHu135, P12) were added to a 96-well culture plate (costar, #3799) at 1000/well. The medium was McCoy's 5A (invitrogen, #16600)+10% FBS (GIBCO-10099141), and the condition was at 37° C. for 24 hours. Afterwards, cells were starved for 24 hours (The medium for cell starvation is McCoy's 5A and 0.5% FBS).

[1] = LC-MS analysis of deamination (biophysical stability); type: physicochemical; conditions: Proportion of deamination molecules; 0.66-1.0% is within background
Method: To evaluate the biophysical stability of the antibodies of the invention, such as the presence of glycosylation and deamination and stability, LC-MS analysis was used.
The molecular weight of the heavy and light chains was detected by LC-MS to analyze glycosylation. Deamination was analyzed by LC-MS at 4° C. for a long time (at least 3 months), or at 40° C. for 21 days under an accelerated condition. Samples treated with different conditions were diluted to 2 mg/ml with pH7.2 Tris-HCl, and added into 10 mM TCEP and 6M urea (AMRESCO, Cat #0378)3, then the samples were incubated for 20 minutes at […]. IAA(Sigma-Aldrich, Cat # I1149) with a final concentration of 20 mM was added and was incubated for 15 minutes in darkness to protect the sulfhydryl group. The pH was adjusted using pH7.2 Tris-HCl, and protease (Sigma-Aldrich, Cat # T6567) was added at a proportion by weight of 10:1 (protein: enzyme). The samples were incubated at 37° C. for 25 minutes, and then formic acid with a final concentration of 0.1% (Fluca, Cat #94318) was added to terminate the reactions. Samples were centrifuged and analyzed by LC-MS.
BiopharmaLynx was used to analyze the presence of deamination. […] The peak area was obtained by integration, and the percentages of deamination and oxidation were calculated.

[2] = molecular target: T1, cell line MKN45, which overexpresses c-Met (Homo sapiens, UniProt P08581); assay: FACS binding activity with MKN45 cells; conditions: Table 6
T1 construct: host or cells: MKN45
T1 sequence (P08581 25-1390): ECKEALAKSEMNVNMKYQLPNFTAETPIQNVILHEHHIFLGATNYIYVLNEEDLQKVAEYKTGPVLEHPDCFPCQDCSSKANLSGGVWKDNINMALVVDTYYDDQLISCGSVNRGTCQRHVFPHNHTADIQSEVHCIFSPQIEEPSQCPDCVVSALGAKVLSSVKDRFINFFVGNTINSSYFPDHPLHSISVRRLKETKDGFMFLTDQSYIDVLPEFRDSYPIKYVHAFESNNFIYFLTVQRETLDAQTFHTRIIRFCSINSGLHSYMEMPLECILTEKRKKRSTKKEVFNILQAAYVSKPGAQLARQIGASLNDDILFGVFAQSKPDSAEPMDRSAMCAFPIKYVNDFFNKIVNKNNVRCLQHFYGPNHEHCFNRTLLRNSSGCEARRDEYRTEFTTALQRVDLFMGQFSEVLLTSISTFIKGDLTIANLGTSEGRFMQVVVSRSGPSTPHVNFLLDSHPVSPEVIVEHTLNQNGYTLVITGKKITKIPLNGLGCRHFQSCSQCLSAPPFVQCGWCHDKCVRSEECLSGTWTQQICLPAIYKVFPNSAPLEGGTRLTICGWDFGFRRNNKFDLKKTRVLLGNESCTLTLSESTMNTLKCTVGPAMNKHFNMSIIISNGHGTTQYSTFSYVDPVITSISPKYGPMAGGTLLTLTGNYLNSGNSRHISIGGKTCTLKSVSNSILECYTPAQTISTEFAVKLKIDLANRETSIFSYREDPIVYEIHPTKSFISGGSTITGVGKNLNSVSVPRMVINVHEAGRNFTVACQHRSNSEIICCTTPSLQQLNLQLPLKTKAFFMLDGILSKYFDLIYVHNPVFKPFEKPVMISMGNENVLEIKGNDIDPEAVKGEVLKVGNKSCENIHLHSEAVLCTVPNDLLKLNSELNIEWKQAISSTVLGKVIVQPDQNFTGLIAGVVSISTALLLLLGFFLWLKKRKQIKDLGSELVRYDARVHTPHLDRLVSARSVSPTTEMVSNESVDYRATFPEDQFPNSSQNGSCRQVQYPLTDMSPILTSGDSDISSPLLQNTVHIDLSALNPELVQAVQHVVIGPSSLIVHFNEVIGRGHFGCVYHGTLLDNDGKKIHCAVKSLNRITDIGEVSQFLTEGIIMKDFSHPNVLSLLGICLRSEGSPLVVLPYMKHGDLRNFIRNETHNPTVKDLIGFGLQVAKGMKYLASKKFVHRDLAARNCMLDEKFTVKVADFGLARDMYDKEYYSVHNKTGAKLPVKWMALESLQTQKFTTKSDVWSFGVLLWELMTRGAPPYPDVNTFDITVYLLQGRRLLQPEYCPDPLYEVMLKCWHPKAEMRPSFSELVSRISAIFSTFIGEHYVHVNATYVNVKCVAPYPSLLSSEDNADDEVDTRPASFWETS
Method: A FACS method was used to detect the binding activity of c-Met humanized antibodies with the cell line MKN45, which overexpresses c-Met. […] The plate was incubated for 1 hour at 4° C. FACS buffer (PBS comprising 2.5% (v/v) FBS (Hyclone, Cat: SH30256.01B)) was added. The plate was centrifuged under 4° C. at 1300 rmp for 4 minutes, and the supernatant was discarded. This procedure was repeated three times. 100 μl of secondary antibodies (Fluorescence labeled goat-anti-mouse secondary antibodies with 1:200 dilution, Biolegend, Cat No. 405307; Fluorescence labeled anti-human secondary antibody with 1:30 dilution, Biolegend, Cat No. 409304) were added to each well, and the plate was incubated for 1 hour at 4° C. FACS buffer was added, the plate was centrifuged under 4° C. at 1300 rpm for 4 minutes, the supernatants were discarded; and this procedure was repeated three times. 200 μl FACS buffer was added to resuspend the cells, and the samples were prepared and detected by flow cytometry (BD FACS Array).

[3] = tested on: c-Met tyrosine residue 1349; assay: Agonist test: c-Met phosphorylation in A549 cells; type: cell-based, human; conditions: Antibody 20 μg/ml; activation by HGF (200 ng/ml) set as 100%
Method: The binding of HGF to c-Met activates both tyrosine phosphorylation of the c-Met molecule and the c-Met signaling pathway. Therefore, the activation of c-Met by HGF was used as a positive control of the agonist experiment, and human lung cancer cell line […] was used to evaluate the induced phophorylation of c-Met tyrosine residue 1349.
A549 cells were suspended in solution containing Ham's F12K, 2 mM glutamine (Invitrogen, #21127-022), and 10% (v/v) FBS (GIBCO, #10099141). 0.2 mL of cell suspension was taken and added to a 96-well plate (Corning, #3599), and the cell concentration was 60000 cells/well. The plate was incubated for 24 hours under 5% CO2 at 37° C. After 24 hours, the media in the 96-well plate was discarded, and 100 μl low serum medium (Ham's F12K+2 mM glutamine+0.5% FBS) was added. The cells were starved for 6 hours under 5% CO2 at 37° C. Antibodies were diluted using the above low serum medium to a final concentration of 20 μg/ml. The HGF concentration in the positive control was 200 ng/ml. The plate was incubated for 15 minutes at 37° C. […] After cell lysis, c-Met tyrosine phosphorylation was detected by ELISA. […] Data was read by a […] microplate reader (Supplier: Moleculer Devices; Model: MNR0643; Equip ID: TMRP001). […]

B1: Ab-9: humanized anti c-Met antibody: heavy chain sequence of SEQ ID NO: 23 and light chain sequence of SEQ ID NO: 26 (antibody)
heavy: QVTLKESGPVLVKPTETLTLTCTVSGFSLPNYGVHWVRQPPGKALEWLAVIWSGGSTNYAAAFVSRLRISKDTSKSQVVFTMNNMDPVDTATYYCARNHDNPYNYAMDYWGQGTTVTVSSASTKGPSVFPLAPCSRSTSESTAALGCLVKDYFPEPVTVSWNSGALTSGVHTFPAVLQSSGLYSLSSVVTVPSSNFGTQTYTCNVDHKPSNTKVDKTVERKCCVECPPCPAPPVAGPSVFLFPPKPKDTLMISRTPEVTCVVVDVSHEDPEVQFNWYVDGVEVHNAKTKPREEQFNSTFRVVSVLTVVHQDWLNGKEYKCKVSNKGLPAPIEKTISKTKGQPREPQVYTLPPSREEMTKNQVSLTCLVKGFYPSDIAVEWESNGQPENNYKTTPPMLDSDGSFFLYSKLTVDKSRWQQGNVFSCSVMHEALHNHYTQKSLSLSPGK
light: DIVLTQSPASLAVSPGQRATITCRANKSVSTSTYNYLHWYQQKPGQPPKLLIYLASNLASGVPARFSGSGSGTDFTLTINPVEANDTANYYCQHSRDLPPTFGQGTKLEIKRTVAAPSVFIFPPSDEQLKSGTASVVCLLNNFYPREAKVQWKVDNALQSGNSQESVTEQDSKDSTYSLSSTLTLSKADYEKHKVYACEVTHQGLSSPVTKSFNRGEC
modifications: Ab-9 heavy chain; Ab-9 light chain
Stimulation of proliferation of Caki-1 (Caki-1 cells): none | Analysis of deamination 4° C., 3.5 months [1]: 0.66% | EC50 [2]: 1.6 nM | Activation of c-Met phosphorylation (%) [3]: 29.9%
